Experimental data as given in US20210130436A1 (published 2021).

Experiments:
[1] = target: T1, human PD-L1 (huPD-L1), full-length, stably expressed on CHO cells (human, UniProt Q9NZQ7 19-290); test: flow cytometry, CHO cells expressing huPD-L1
T1 construct: whole, on cells

[2] = target: T2, human CTLA4 (full-length, expressed on CHO cells) (human, UniProt P16410 36-223); test: flow cytometry, CHO cells expressing huCTLA4, PE anti-human Fc
T2 construct: also called huCTLA4

[3] = target: T3, CD28 (endogenously expressed on Jurkat/IL2 reporter cells) (human, UniProt P10747 19-220); test: flow cytometry, Jurkat/IL2 reporter cells (endogenous CD28), PE anti-human Fc
T3 construct: Endogenous CD28 of Jurkat cells; also called human CD28

[4] = target: T2, human CTLA4 (full-length, expressed on …); test: flow cytometry MFI at 33.3 nM relative to WT CD80 ECD-Fc (R&D), CHO/huCTLA4 cells
[5] = target: T4, human PD-L1 (full-length, expressed on CHO cells) (human, UniProt Q9NZQ7 19-290); test: flow cytometry, MFI on CHO/huPD-L1 cells over MFI on Jurkat (CD28) cells, 33.3 nM
T4 construct: also called huPD-L1; CD274

[6] = target: T4, human PD-L1 (full-length, expressed on …); test: flow cytometry MFI at 33.3 nM relative to WT CD80 ECD-Fc (R&D), CHO/huPD-L1 cells
[7] = target: T4, human PD-L1 (full-length, expressed on …); test: flow cytometry, CHO cells expressing huPD-L1, PE anti-human Fc
[8] = target: T3, CD28 (endogenously expressed on …); test: flow cytometry MFI at 33.3 nM relative to WT CD80 ECD-Fc (R&D), Jurkat cells

T4 sequence (Q9NZQ7 19-290): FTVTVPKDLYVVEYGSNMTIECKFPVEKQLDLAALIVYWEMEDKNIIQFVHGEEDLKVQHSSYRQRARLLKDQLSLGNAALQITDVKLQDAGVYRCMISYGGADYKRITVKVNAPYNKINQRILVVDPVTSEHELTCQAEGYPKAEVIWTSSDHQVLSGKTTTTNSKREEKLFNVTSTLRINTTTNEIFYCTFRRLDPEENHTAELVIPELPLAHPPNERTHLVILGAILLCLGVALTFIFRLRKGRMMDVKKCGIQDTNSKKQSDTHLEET
T2 sequence (P16410 36-223): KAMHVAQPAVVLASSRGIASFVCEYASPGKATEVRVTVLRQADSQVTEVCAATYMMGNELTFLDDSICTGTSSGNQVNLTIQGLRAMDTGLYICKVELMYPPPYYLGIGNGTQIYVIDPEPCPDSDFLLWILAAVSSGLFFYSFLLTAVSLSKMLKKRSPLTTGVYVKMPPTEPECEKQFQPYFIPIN
T1 sequence (Q9NZQ7 19-290): as the sequence (Q9NZQ7 19-290) above

Row | MFI at 33.3 nM [1] [MFI] | MFI at 33.3 nM [2] [MFI] | MFI at 33.3 nM [3] [MFI] | Fold change to WT CD80 [4] [fold] | Ratio of PDL1:CD28 [5] [ratio] | Fold change to WT [6] [fold] | MFI at 33.3 nM [7] [MFI] | Fold change to WT [8] [fold] | Binder
1 |  | 1100 | 278 | 0.01 | 140 | 4.9 | 38900 | 0.04 | variant CD80 IgV-Fc Y31S/E35D/M47L/T79L/E88G (Fc fusion, not shown: a dimerising Fc or GST) VIHVTKEVKEVATLSCGHNVSVEELAQTRISWQKDKKMVLTMMSGDLNIWPEYKNRTIFDITNNLSIVILALRPSDEGLYECVVLKYGKDAFKREHLAEVTLSVKAD
2 |  | 5540 | 295 | 0.03 | 162 | 6.02 | 47800 | 0.04 | variant CD80 IgV-Fc H18Y/Q33L/E35D/M47I (Fc fusion, not shown: a dimerising Fc or GST) VIHVTKEVKEVATLSCGYNVSVEELAQTRIYWLKDKKMVLTMMSGDINIWPEYKNRTIFDITNNLSIVILALRPSDEGTYECVVLKYEKDAFKREHLAEVTLSVKAD
3 | 13100 |  |  |  |  |  |  |  | variant CD80 IgV-Fc E35D/M47I/V68M/Y87N (Fc fusion, not shown: small tags and cut ends; a dimerising Fc or GST) VIHVTKEVKEVATLSCGHNVSVEELAQTRIYWQKDKKMVLTMMSGDINIWPEYKNRTIFDITNNLSIMILALRPSDEGTYECVVLKNEKDAFKREHLAEVTLSVKAD
4 |  | 1660 | 284 | 0.01 | 256 | 9.14 | 72600 | 0.04 | variant CD80 IgV-Fc Q33L/E35D/M47I/T62N/L85Q (Fc fusion, not shown: a dimerising Fc or GST) VIHVTKEVKEVATLSCGHNVSVEELAQTRIYWLKDKKMVLTMMSGDINIWPEYKNRTIFDINNNLSIVILALRPSDEGTYECVVQKYEKDAFKREHLAEVTLSVKAD

The remaining lines, values behind:

Row | Binder | MFI at 33.3 nM [1] [MFI] | MFI at 33.3 nM [2] [MFI] | MFI at 33.3 nM [3] [MFI] | Fold change to WT CD80 [4] [fold] | Ratio of PDL1:CD28 [5] [ratio] | Fold change to WT [6] [fold] | MFI at 33.3 nM [7] [MFI] | Fold change to WT [8] [fold]
5 | variant CD80 IgV-Fc E35D/D46E/M47L/V68M/A71G/Y87C/K93R (Fc fusion, not shown: small tags and cut ends; a dimerising Fc or GST) VIHVTKEVKEVATLSCGHNVSVEELAQTRIYWQKDKKMVLTMMSGELNIWPEYKNRTIFDITNNLSIMILGLRPSDEGTYECVVLKCEKDAFRREHLAEVTLSVKAD | 24300 |  |  |  |  |  |  | 
6 | variant CD80 IgV-Fc Q27H/Q33L/E35D/M47V/N55D/L85Q/K89N (Fc fusion, not shown: a dimerising Fc or GST) VIHVTKEVKEVATLSCGHNVSVEELAHTRIYWLKDKKMVLTMMSGDVNIWPEYKDRTIFDITNNLSIVILALRPSDEGTYECVVQKYENDAFKREHLAEVTLSVKAD |  | 56100 | 269 | 0.31 | 55 | 1.86 | 14800 | 0.04
7 | variant CD80 IgV-Fc V22A/E23D/Q33L/E35D/M47V (Fc fusion, not shown: a dimerising Fc or GST) VIHVTKEVKEVATLSCGHNVSADELAQTRIYWLKDKKMVLTMMSGDVNIWPEYKNRTIFDITNNLSIVILALRPSDEGTYECVVLKYEKDAFKREHLAEVTLSVKAD |  | 3640 | 274 | 0.02 | 275 | 9.51 | 75500 | 0.04
8 | variant CD80 IgV-Fc Q33L/E35D/M47I/L85Q (Fc fusion, not shown: a dimerising Fc or GST) VIHVTKEVKEVATLSCGHNVSVEELAQTRIYWLKDKKMVLTMMSGDINIWPEYKNRTIFDITNNLSIVILALRPSDEGTYECVVQKYEKDAFKREHLAEVTLSVKAD |  | 20500 | 287 | 0.11 | 222 | 8.05 | 63900 | 0.04
9 | variant CD80 IgV-Fc H18Y/V20A/Q33L/E35D/M47V/Y53F (Fc fusion, not shown: a dimerising Fc or GST) VIHVTKEVKEVATLSCGYNASVEELAQTRIYWLKDKKMVLTMMSGDVNIWPEFKNRTIFDITNNLSIVILALRPSDEGTYECVVLKYEKDAFKREHLAEVTLSVKAD |  | 2880 | 260 | 0.02 | 463 | 15.2 | 121000 | 0.03
